B1: Retinoic acid receptor beta, residues 85 to 161; numbered along this chain, P10826 (parent)
chain: YKPCFVCQDKSSGYHYGVSACEGCKGFFRRSIQKNMIYTCHRDKNCVINKVTRNRCQYCRLQKCFEVGMSKESVRND

± gives the uncertainty stated by the source.

Variants of B1 are the subject of the data set. Briefly: abundance fitness (aPCA) (normalised: wild type 0, dead -1); higher = more abundant; growth selection in yeast, the domain comes from the species named. The note with it: Homo sapiens.
For YKPCFVCQDKSSGYHYGVSACEGCKGFFRRSIQKNMIYTCHRDKNCVINKVTRNRCQYCRIQKCFEVGMSKESVRND [L61I], the abundance fitness is -0.207 ± 0.087. The figure for YKPCFVCQDKSSGYHYGVSACEGCKGFFRRSIQKNMIYTCHRDKNCVINKVTRNRCQYCRFQKCFEVGMSKESVRND [L61F] is -0.13 ± 0.083; for YKPCFVCQDKSSGYHYGVSACEGCKGFFRRSIQKNMIYTCHRDKNCVINKVTRNRCQYCREQKCFEVGMSKESVRND [L61E] it is -0.635 ± 0.083. As for YKPCFVCQDKSSGYHYGVSACEGCKGFFRRSIQKNMIYTCHRDKNCVINKVTRNRCQYCRYQKCFEVGMSKESVRND [L61Y], the abundance fitness was -0.181 ± 0.098. Turning to YKPCFVCQDKSSGYHYGVSACEGCKGFFRRSIQKNMIYTCHRDKNCVINKVTRNRCQYCRHQKCFEVGMSKESVRND [L61H], the abundance fitness was -0.503 ± 0.33. Regarding YKPCFVCQDKSSGYHYGVSACEGCKGFFRRSIQKNMIYTCHRDKNCVINKVTRNRCQYCRRQKCFEVGMSKESVRND [L61R], the abundance fitness was -0.8 ± 0.086. Consider YKPCFVCQDKSSGYHYGVSACEGCKGFFRRSIQKNMIYTCHRDKNCVINKVTRNRCQYCRPQKCFEVGMSKESVRND [L61P], for which the abundance fitness is -0.754 ± 0.19. In the case of YKPCFVCQDKSSGYHYGVSACEGCKGFFRRSIQKNMIYTCHRDKNCVINKVTRNRCQYCRMQKCFEVGMSKESVRND [L61M], the abundance fitness is -0.023 ± 0.045.

YKPCFVCQDKSSGYHYGVSACEGCKGFFRRSIQKNMIYTCHRDKNCVINKVTRNRCQYCRWQKCFEVGMSKESVRND [L61W]: the abundance fitness was -0.605 ± 0.078. As for YKPCFVCQDKSSGYHYGVSACEGCKGFFRRSIQKNMIYTCHRDKNCVINKVTRNRCQYCRSQKCFEVGMSKESVRND [L61S], the abundance fitness was -0.995 ± 0.15.

In the case of YKPCFVCQDKSSGYHYGVSACEGCKGFFRRSIQKNMIYTCHRDKNCVINKVTRNRCQYCRQQKCFEVGMSKESVRND [L61Q], the abundance fitness was -0.336 ± 0.088.

For YKPCFVCQDKSSGYHYGVSACEGCKGFFRRSIQKNMIYTCHRDKNCVINKVTRNRCQYCRDQKCFEVGMSKESVRND [L61D], the abundance fitness was -0.516 ± 0.14. Consider YKPCFVCQDKSSGYHYGVSACEGCKGFFRRSIQKNMIYTCHRDKNCVINKVTRNRCQYCRKQKCFEVGMSKESVRND [L61K], for which the abundance fitness is -0.946 ± 0.2.

As for YKPCFVCQDKSSGYHYGVSACEGCKGFFRRSIQKNMIYTCHRDKNCVINKVTRNRCQYCRCQKCFEVGMSKESVRND [L61C], the abundance fitness was -0.657 ± 0.16. The figure for YKPCFVCQDKSSGYHYGVSACEGCKGFFRRSIQKNMIYTCHRDKNCVINKVTRNRCQYCRVQKCFEVGMSKESVRND [L61V] is -0.499 ± 0.059; for YKPCFVCQDKSSGYHYGVSACEGCKGFFRRSIQKNMIYTCHRDKNCVINKVTRNRCQYCRGQKCFEVGMSKESVRND [L61G] it is -0.605 ± 0.069; for YKPCFVCQDKSSGYHYGVSACEGCKGFFRRSIQKNMIYTCHRDKNCVINKVTRNRCQYCRLQKQFEVGMSKESVRND [C64Q] it is -0.426 ± 0.1.

As for YKPCFVCQDKSSGYHYGVSACEGCKGFFRRSIQKNMIYTCHRDKNCVINKVTRNRCQYCRLQKSFEVGMSKESVRND [C64S], the abundance fitness was -0.461 ± 0.06. With YKPCFVCQDKSSGYHYGVSACEGCKGFFRRSIQKNMIYTCHRDKNCVINKVTRNRCQYCRLQKRFEVGMSKESVRND [C64R], the abundance fitness is -0.732 ± 0.059. Under YKPCFVCQDKSSGYHYGVSACEGCKGFFRRSIQKNMIYTCHRDKNCVINKVTRNRCQYCRLQKAFEVGMSKESVRND [C64A] stands -0.329 ± 0.052; under YKPCFVCQDKSSGYHYGVSACEGCKGFFRRSIQKNMIYTCHRDKNCVINKVTRNRCQYCRLQKLFEVGMSKESVRND [C64L], -0.734 ± 0.09. Consider YKPCFVCQDKSSGYHYGVSACEGCKGFFRRSIQKNMIYTCHRDKNCVINKVTRNRCQYCRLQKYFEVGMSKESVRND [C64Y], for which the abundance fitness was -1.17 ± 0.34.

With YKPCFVCQDKSSGYHYGVSACEGCKGFFRRSIQKNMIYTCHRDKNCVINKVTRNRCQYCRLQKEFEVGMSKESVRND [C64E], the abundance fitness is -0.799 ± 0.088. The figure for YKPCFVCQDKSSGYHYGVSACEGCKGFFRRSIQKNMIYTCHRDKNCVINKVTRNRCQYCRLQKKFEVGMSKESVRND [C64K] is -0.885 ± 0.14; for YKPCFVCQDKSSGYHYGVSACEGCKGFFRRSIQKNMIYTCHRDKNCVINKVTRNRCQYCRLQKMFEVGMSKESVRND [C64M] it is -0.412 ± 0.067; for YKPCFVCQDKSSGYHYGVSACEGCKGFFRRSIQKNMIYTCHRDKNCVINKVTRNRCQYCRLQKGFEVGMSKESVRND [C64G] it is -0.658 ± 0.045. For YKPCFVCQDKSSGYHYGVSACEGCKGFFRRSIQKNMIYTCHRDKNCVINKVTRNRCQYCRLQKNFEVGMSKESVRND [C64N], the abundance fitness is -0.969 ± 0.42. The figure for YKPCFVCQDKSSGYHYGVSACEGCKGFFRRSIQKNMIYTCHRDKNCVINKVTRNRCQYCRLQKHFEVGMSKESVRND [C64H] is -0.646 ± 0.15; for YKPCFVCQDKSSGYHYGVSACEGCKGFFRRSIQKNMIYTCHRDKNCVINKVTRNRCQYCRLQKIFEVGMSKESVRND [C64I] it is -0.729 ± 0.36; for YKPCFVCQDKSSGYHYGVSACEGCKGFFRRSIQKNMIYTCHRDKNCVINKVTRNRCQYCRLQKDFEVGMSKESVRND [C64D] it is -0.996 ± 0.25. The figure for YKPCFVCQDKSSGYHYGVSACEGCKGFFRRSIQKNMIYTCHRDKNCVINKVTRNRCQYCRLQKTFEVGMSKESVRND [C64T] is -0.769 ± 0.14; for YKPCFVCQDKSSGYHYGVSACEGCKGFFRRSIQKNMIYTCHRDKNCVINKVTRNRCQYCRLQKVFEVGMSKESVRND [C64V] it is -0.628 ± 0.084. The figure for YKPCFVCQDKSSGYHYGVSACEGCKGFFRRSIQKNMIYTCHRDKNCVINKVTRNRCQYCRLQKPFEVGMSKESVRND [C64P] is -0.689 ± 0.18. In the case of YKPCFVCQDKSSGYHYGVSACEGCKGFFRRSIQKNMIYTCHRDKNCVINKVTRNRCQYCRLQNCFEVGMSKESVRND [K63N], the abundance fitness is -0.519 ± 0.2.

In the case of YKPCFVCQDKSSGYHYGVSACEGCKGFFRRSIQKNMIYTCHRDKNCVINKVTRNRCQYCRLQICFEVGMSKESVRND [K63I], the abundance fitness is -0.321 ± 0.13.

(Values after the Human Domainome abundance scans (Beltran et al. 2025).)
